Consider two molecules from patent US20240148828A1 (SHATTUCK LABS, published 2024).

The target in assay [1] is T1, B7H3 expressed on cells (OV-90, OVCAR3) (human, UniProt Q5ZPR3 29-534).
T1 construct: whole, on cells; also called B7H3+ OV90 tumor cells; B7H3+ OVCAR3 cells
T1 sequence (looked up): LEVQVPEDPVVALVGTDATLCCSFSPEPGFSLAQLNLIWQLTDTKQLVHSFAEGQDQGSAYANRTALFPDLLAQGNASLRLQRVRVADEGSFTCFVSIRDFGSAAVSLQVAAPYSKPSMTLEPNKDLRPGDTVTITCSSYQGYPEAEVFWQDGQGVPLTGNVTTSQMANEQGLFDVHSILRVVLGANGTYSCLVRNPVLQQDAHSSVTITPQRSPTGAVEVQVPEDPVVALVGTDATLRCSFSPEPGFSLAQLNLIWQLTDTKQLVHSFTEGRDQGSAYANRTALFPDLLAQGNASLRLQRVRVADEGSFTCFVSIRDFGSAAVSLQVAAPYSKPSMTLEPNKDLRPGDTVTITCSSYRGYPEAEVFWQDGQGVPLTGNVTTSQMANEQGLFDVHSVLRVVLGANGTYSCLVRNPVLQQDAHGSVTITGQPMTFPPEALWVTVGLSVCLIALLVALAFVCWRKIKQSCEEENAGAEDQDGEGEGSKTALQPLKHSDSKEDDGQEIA
Nature of the assay: flow cytometry on OV-90 cells. (A flow cytometer gives signals particle by particle.)

Assay [2] concerns the target T2, CD19 expressed on cells (Daudi, Raji, K562-CD19) (human, UniProt P15391 20-556).
T2 construct: whole, on cells
T2 sequence (looked up): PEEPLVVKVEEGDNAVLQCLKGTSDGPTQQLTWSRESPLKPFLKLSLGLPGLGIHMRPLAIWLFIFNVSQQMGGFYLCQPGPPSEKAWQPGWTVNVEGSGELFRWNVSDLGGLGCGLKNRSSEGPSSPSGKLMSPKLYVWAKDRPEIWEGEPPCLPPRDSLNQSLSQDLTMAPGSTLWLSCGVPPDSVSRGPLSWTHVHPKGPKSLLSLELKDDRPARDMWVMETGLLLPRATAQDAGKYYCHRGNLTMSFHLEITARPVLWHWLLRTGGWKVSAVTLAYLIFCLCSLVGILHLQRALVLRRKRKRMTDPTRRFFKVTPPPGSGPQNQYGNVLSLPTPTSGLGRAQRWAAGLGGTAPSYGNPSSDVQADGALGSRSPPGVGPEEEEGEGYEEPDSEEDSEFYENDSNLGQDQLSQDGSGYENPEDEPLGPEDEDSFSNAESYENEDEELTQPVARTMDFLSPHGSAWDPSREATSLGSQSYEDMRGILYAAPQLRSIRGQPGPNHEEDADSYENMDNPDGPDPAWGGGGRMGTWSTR
Nature of the assay: flow cytometry on RAJI cells (B7H3-negative, CD19-expressing), AF647 anti-Fc detection.

For assay [3], the target named is T3, recombinant B7H3-His protein (UniProt Q5ZPR3 29-461, limits assumed).
T3 construct: not shown: His tag
T3 sequence (looked up): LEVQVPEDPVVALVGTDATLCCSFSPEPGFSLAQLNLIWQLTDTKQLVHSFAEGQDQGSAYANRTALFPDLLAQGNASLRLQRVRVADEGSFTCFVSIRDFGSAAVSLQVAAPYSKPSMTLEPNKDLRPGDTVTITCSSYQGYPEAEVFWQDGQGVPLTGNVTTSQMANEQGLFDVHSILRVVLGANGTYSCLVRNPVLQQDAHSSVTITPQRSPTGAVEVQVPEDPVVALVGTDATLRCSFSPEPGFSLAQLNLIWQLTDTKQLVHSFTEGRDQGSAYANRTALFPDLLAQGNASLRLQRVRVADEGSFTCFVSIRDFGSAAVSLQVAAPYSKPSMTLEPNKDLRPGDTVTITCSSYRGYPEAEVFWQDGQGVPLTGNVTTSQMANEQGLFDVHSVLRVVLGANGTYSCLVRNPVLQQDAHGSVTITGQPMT
Nature of the assay: MSD plate assay, plate-bound B7H3-His, detection with anti-BTN3A1 antibody.

Assay [4] addresses T4, recombinant FAP-His protein (UniProt Q12884 26-760).
T4 construct: not shown: His tag
Nature of the assay: MSD plate assay, plate-bound FAP-His, detection with anti-BTN3A1 antibody.

Assay [5] deals with T2, CD19 expressed on cells (Daudi, Raji, …). The assay can be described thus: flow cytometry on Daudi cells.

T4 sequence (Q12884 26-760 limits assumed): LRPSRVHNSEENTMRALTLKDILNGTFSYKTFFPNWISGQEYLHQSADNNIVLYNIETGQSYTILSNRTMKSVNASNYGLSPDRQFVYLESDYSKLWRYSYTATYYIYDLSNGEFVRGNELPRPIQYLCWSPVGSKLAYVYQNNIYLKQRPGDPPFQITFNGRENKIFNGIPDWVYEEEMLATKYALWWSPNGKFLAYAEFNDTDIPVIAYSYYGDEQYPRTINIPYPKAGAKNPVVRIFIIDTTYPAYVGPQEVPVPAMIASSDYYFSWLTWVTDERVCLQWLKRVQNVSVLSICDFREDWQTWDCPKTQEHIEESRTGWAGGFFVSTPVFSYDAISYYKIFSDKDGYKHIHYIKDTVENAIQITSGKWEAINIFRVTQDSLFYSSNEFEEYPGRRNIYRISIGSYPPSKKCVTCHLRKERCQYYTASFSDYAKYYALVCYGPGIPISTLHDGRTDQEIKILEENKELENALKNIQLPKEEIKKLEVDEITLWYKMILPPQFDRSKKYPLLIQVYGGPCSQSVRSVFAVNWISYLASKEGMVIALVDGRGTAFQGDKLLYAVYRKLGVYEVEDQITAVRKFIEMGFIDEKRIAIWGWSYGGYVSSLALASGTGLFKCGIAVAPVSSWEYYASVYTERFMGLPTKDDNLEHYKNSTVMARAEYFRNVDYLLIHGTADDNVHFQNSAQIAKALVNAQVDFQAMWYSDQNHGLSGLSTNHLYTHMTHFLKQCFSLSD

B1: BTN2A1/3A1-Fc-B7H3scFv heterodimeric protein (Fc fusion)
chain 1: QFIVVGPTDPILATVGENTTLRCHLSPEKNAEDMEVRWFRSQFSPAVFVYKGGRERTEEQMEEYRGRTTFVSKDISRGSVALVIHNITAQENGTYRCYFQEGRSYDEAILHLVVAGLGSKPLISMRGHEDGGIRLECISRGWYPKPLTVWRDPYGGVAPALKEVSMPDADGLFMVTTAVIIRDKSVRNMSCSINNTLLGQKKESVIFIPESFMPSVSPCAGSGSRKGGKRGSKYGPPCPPCPAPEFLGGPSVFLFPPKPKDQLMISRTPEVTCVVVDVSQEDPEVQFNWYVDGVEVHNAKTKPREEQFNSTYRVVSVLTVLHQDWLSGKEYKCKVSSKGLPSSIEKTISNATGQPREPQVYTLPPSQEEMTKNQVSLTCLVKGFYPSDIAVEWESNGQPENNYKTTPPVLDSDGSFFLYSRLTVDKSRWQEGNVFSCSVLHEALHNHYTQKSLSLSLGKDEGGEDGSDIQMTQSPSFLSASVGDRVTITCKASQNVDTNVAWYQQKPGKAPKALIYSASYRYSGVPSRFSGSGSGTDFTLTISSLQPEDFAEYFCQQYNNYPFTFGQGTKLEIKSSGGGGSGGGGSGGGGSEVQLVESGGGLVQPGGSLRLSCAASGFTFSSFGMHWVRQAPGKGLEWVAYISSGSGTIYYADTVKGRFTISRDNAKNSLYLQMNSLRAEDTAVYYCARHGYRYEGFDYWGQGTTVTVSS
chain 2: not shown
notes: Produced by transient co-transfection of ExpiCHO cells; also called BTN2A1/3A1-Fc-B7H3scFv/B7H3scFv
B1: the binding result in assay [1] is reported as “binds”; in assay [2] it was “no binding”.

B2: BTN2A1/3A1-Fc-CD19scFv heterodimeric protein (Fc fusion)
chain 1: QFIVVGPTDPILATVGENTTLRCHLSPEKNAEDMEVRWFRSQFSPAVFVYKGGRERTEEQMEEYRGRTTFVSKDISRGSVALVIHNITAQENGTYRCYFQEGRSYDEAILHLVVAGLGSKPLISMRGHEDGGIRLECISRGWYPKPLTVWRDPYGGVAPALKEVSMPDADGLFMVTTAVIIRDKSVRNMSCSINNTLLGQKKESVIFIPESFMPSVSPCAGSGSRKGGKRGSKYGPPCPPCPAPEFLGGPSVFLFPPKPKDQLMISRTPEVTCVVVDVSQEDPEVQFNWYVDGVEVHNAKTKPREEQFNSTYRVVSVLTVLHQDWLSGKEYKCKVSSKGLPSSIEKTISNATGQPREPQVYTLPPSQEEMTKNQVSLTCLVKGFYPSDIAVEWESNGQPENNYKTTPPVLDSDGSFFLYSRLTVDKSRWQEGNVFSCSVLHEALHNHYTQKSLSLSLGKDEGGEDGSDIQMTQTTSSLSASLGDRVTISCRASQDISKYLNWYQQKPDGTVKLLIYHTSRLHSGVPSRFSGSGSGTDYSLTISNLEQEDIATYFCQQGNTLPYTFGGGTKLEITGGGSGGGSGGGSEVKLQESGPGLVAPSQSLSVTCTVSGVSLPDYGVSWIRQPPRKGLEWLGVIWGSETTYYNSALKSRLTIIKDNSKSQVFLKMNSLQTDDTAIYYCAKHYYYGGSYAMDYWGQGTSVTVSS
chain 2: not shown
notes: Secreted from Expi293 or CHO cells and purified; also called BTN2A1/3A1-Fc-CD19scFv3; BTN2A1/3A1-Fc-19scFv
In the case of B2, the binding result in assay [3] is “no binding”; in assay [4], “no binding”; in assay [5], “binds”.
